Where no end group is shown, it is not given here.
Legend:
[1] = target: T1, PD-1 on the surface of cells (Jurkat T cells stimulated with PMA and ionomycin; iCIKs) (human, UniProt Q15116 25-288); experiment: flow cytometry blocking assay: peptide mixed with recombinant human PD-L1, PD-L1 binding to PD-1-expressing stimulated Jurkat T cells read with APC streptavidin
T1 construct: whole, on cells; Endogenous PD-1 of human cells; also called PD-1 on the surface of Jurkat T cells; PD-1-expressing Jurkat T cells
T1 sequence (Q15116 25-288): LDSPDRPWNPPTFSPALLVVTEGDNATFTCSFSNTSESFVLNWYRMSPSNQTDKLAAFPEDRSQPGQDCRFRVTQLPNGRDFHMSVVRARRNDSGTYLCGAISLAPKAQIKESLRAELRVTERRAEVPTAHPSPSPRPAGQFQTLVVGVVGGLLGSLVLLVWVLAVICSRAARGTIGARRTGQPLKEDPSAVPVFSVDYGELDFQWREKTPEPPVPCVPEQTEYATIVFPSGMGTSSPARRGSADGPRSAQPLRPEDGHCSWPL
Procedure: (§1) The Jurkat T cells were divided into two groups, an experimental group and a control group, wherein in the experimental group, 50 ng/ml of Phorbol 12-myristate 13-acetate (PAM) and 1 ug/ml of Ionomycin Calcium Salt (Ionomycin) were used to stimulate the cells, and in the control group, Jurkat T cells were unstimulated. The cells (5×10⁵) were collected in each tube, and washed once with FACS buffer (PBS with 2% BSA). […] FACS buffer was used for washing the cells three times, and 0.12 ug/ml of APC Streptavidin (405207, Biolegend) was added to each tube and the incubation was performed for 1 hour at 4° C., and then the cells were washed three times with FACS buffer again, and 500 μl of PBS was added to resuspend the cells, which were further transferred to flow tubes and analyzed by flow cytometry.

[2] = target: T2, Recombinant Human PD-1 protein (PD1-H5221, Acro Biosystems) (human, UniProt Q15116 25-167); experiment: SPR (Biacore T100), recombinant human PD-1 coupled to a CM5 chip, peptide as analyte at 0.3125-20 µM
T2 construct: Bought reagent, amine-coupled to a CM5 chip for SPR
T2 sequence (Q15116 25-167 limits assumed): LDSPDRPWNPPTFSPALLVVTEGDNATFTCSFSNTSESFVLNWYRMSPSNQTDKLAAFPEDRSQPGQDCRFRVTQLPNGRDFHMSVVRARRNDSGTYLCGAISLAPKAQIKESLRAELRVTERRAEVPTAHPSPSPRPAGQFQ
Procedure: (§2) The affinity of the peptides was tested with Biocore T100 through surface plasmon resonance (SPR) technique. […] Finally, the affinities (Kd-value) of the peptides were calculated by fitting curves in the sensor diagram in Biacore software.

[3] = target: T2, Recombinant Human PD-1 protein …; experiment: SPR (Biacore T100), recombinant human PD-1 coupled to a CM5 chip, peptide as analyte at 0.03125-2 µM
Procedure: as §2

[4] = target: T2, Recombinant Human PD-1 protein …; experiment: SPR (Biacore T100), recombinant human PD-1 coupled to CM5 chip, peptide as analyte
Procedure: as §2

[5] = target: T3, Recombinant Human PD-L1 protein (PD1-H82F3, Acro Biosystems) (human, UniProt Q9NZQ7 19-238); experiment: SPR (Biacore T100), recombinant human PD-L1 coupled to a CM5 chip, peptide as analyte at 0.03125-2 µM
T3 construct: Bought reagent
T3 sequence (Q9NZQ7 19-238 limits assumed): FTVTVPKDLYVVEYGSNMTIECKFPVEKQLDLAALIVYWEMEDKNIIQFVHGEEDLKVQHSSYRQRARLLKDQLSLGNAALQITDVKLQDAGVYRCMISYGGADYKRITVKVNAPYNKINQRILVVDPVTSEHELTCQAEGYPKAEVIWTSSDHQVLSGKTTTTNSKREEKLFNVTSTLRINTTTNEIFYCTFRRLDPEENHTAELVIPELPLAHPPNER
Procedure: as §2

[6] = target: T3, Recombinant Human PD-L1 protein …; experiment: SPR (Biacore T100), recombinant human PD-L1 coupled to CM5 chip, peptide as analyte
Procedure: as §2

[7] = target: T1, PD-1 on the surface of cells (Jurkat T …); experiment: flow cytometry blocking assay: peptide mixed with recombinant human PD-L1, PD-L1 binding to PD-1-expressing stimulated Jurkat T cells read with APC streptavidin; nABP486 also binds PD-L1 itself (Figure 2D)
Procedure: as §1

B1: nABP284 (peptide)
peptide: SRLKEIANSPTQFWRMVARNTLGGAKQSLNIEHARL
modifications: not fully specified
notes: also called PD-1-nABP284
**Q.** Which results are given for B1?
**A.** IC50 [1]: 9.61 µM; Kd [2]: 11.8 µM

B2: nABP386 (peptide)
chain 1: SRLKEIANSPTQFWRMVARNTLGNHAKQSLNIEHA
chain 2: SHHHRL
modifications: also: bond at chain A 27 at chain B 6 to a chain's C-terminus
notes: Branched synthetic peptide (Fmoc solid-phase synthesis)
**Q.** Which IC50 [1] does the source give for B2 here?
**A.** The IC50 was 3.42 µM.

**Q.** And the koff [3]?
**A.** The koff was 0.00293 s⁻¹.

**Q.** And the kon [3]?
**A.** The kon was 39000 M⁻¹ s⁻¹.

**Q.** And the Kd [4]?
**A.** The Kd was 75.1 nM.

B3: nABP486 (peptide)
chain 1: SHHHRLKLKEIANSPTQFWRMVARNTLGNGAKQSLNIEHA
chain 2: SHHHRL
modifications: also: lactam at chain A 7 at chain B 6 to a chain's C-terminus
notes: as for B2
**Q.** With B3 as the binder, how does the Kd [5] read?
**A.** The Kd was 52.4 nM.

**Q.** What about the koff [5] of the same binder?
**A.** The koff was 0.00204 s⁻¹.

**Q.** And the kon [5]?
**A.** Its kon is 38900 M⁻¹ s⁻¹.

**Q.** And the Kd [6]?
**A.** Its Kd is 54.2 nM.

**Q.** And the IC50 [7]?
**A.** Its IC50 is 2580 nM.

**Q.** And the koff [3]?
**A.** Its koff is 0.00589 s⁻¹.

**Q.** What about the kon [3] of the same binder?
**A.** Its kon is 496000 M⁻¹ s⁻¹.

**Q.** What about the Kd [4] of the same binder?
**A.** The Kd was 11.9 nM.

B4: nABP786 (peptide)
chain 1: SHHHRLKLKEIANCSPTQFKC
chain 2: SHHHRL
modifications: cysteine pairing not given here; also: lactam at chain A 7 at chain B 6 to a chain's C-terminus
**Q.** Which results are given for B4?
**A.** koff [5]: 0.000486 s⁻¹; kon [5]: 29000 M⁻¹ s⁻¹; Kd [6]: 16.7 nM; koff [3]: 0.000453 s⁻¹; kon [3]: 77600 M⁻¹ s⁻¹; Kd [4]: 5.84 nM
